In PMC11162469, “Discovery of RXFP2 genetic association in resistant hypertensive men and RXFP2 antagonists for the treatment of resistant hypertension” (Scientific Reports, 2024):

Columns and labels:
human RXFP2 = human RXFP2 (Homo sapiens, UniProt Q8WXD0); assay: INSL3-stimulated cAMP assay in HEK293 stably expressing human RXFP2
Description: (§2) RXFP activity assays were developed in HEK293 with stable expression of RXFP2 or RXFP1.
(§3) The same approach was used to generate stable HEK293 lines expressing human and rat RXFP1 and RXFP2 cDNA. The cAMP assay was conducted using the Eurofin Hithunter kit per manufacturer’s instructions in a 384-well format. All dose curve fitting and EC50 and IC50 determinations were performed in Prism (v9.3.0) using the non-linear fit, variable slope (four parameter) function.

rat RXFP2 [1] = molecular target: T1, rat RXFP2 (Rattus norvegicus, UniProt F7EMH8); assay: INSL3-stimulated cAMP assay in HEK293 stably expressing rat RXFP2; conditions: INSL3 EC80-stimulated cAMP, stable expression, N = 2;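 also: cAMP measured with an HitHunter kit in 384-well plates, 11-point dose–response curves up to 1 µM antibody, four-parameter variable-slope fit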
T1 sequence (F7EMH8 20-737): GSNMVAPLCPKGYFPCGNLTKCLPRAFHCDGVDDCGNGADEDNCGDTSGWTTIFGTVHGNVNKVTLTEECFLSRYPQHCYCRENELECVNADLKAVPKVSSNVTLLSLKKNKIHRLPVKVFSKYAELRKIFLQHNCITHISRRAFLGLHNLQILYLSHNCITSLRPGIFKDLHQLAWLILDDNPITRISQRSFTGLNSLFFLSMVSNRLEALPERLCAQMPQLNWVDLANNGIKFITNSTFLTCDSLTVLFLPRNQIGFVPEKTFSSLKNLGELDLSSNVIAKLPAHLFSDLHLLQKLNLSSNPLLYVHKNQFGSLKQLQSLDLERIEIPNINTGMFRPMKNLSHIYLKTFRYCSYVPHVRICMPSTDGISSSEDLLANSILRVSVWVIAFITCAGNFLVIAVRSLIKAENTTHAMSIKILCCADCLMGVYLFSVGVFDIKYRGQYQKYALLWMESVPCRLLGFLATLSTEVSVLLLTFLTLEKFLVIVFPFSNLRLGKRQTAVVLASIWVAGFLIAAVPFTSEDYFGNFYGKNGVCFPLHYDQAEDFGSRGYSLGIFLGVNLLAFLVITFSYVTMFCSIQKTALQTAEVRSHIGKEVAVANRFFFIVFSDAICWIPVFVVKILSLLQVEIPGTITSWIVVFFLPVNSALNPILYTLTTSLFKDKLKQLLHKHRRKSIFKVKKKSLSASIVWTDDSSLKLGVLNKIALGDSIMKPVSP
Description: as §2, §3

rat RXFP2 [2] = molecular target: T1, rat RXFP2; assay: Cortisol secretion (ELISA) in H295R stably expressing rat RXFP2; assay type: cell-based; set-up: expressed in transfected cells; conditions: H295R-rRXFP2, 3.5 nM INSL3, 48 h, read-out: IC50 on INSL3-induced cortisol release
Description: (§1) RXFP2 antagonists were added to H295R-rRXFP2 before addition of INSL3 EC80 (3.5 nM) for 48 h, whereupon the cells and supernatants were collected. CYP11B1 and CYP11B2 mRNA were determined by qPCR and the RXFP2 blocker potencies were calculated (Fig. 5a). Fifteen antibodies have IC50s < 50 nM, and three of the top antibodies (1F2, 4G6, and 2D4) were selected for evaluation in steroid hormone secretion assays by ELISA.
The day after seeding, H295R cells were treated and incubated for 48 h before supernatants and cell lysates were collected. Treatments included INSL3, IgG, 1F2, and 4G6 at 0.035 pM–3.5 µM, 2D4 at 0.01 nM–1 uM, or phosphate buffered saline control. In RXFP2 antagonist assays, 3.5 nM INSL3 was used as the stimulus. Cortisol present in the adrenal cell supernatant at 48 h post treatment was detected by ELISA (R&D KGE008B). Sample dilution was optimized at 1/90 using a standard curve. Aldosterone was below the limit of detection by ELISA (R&D KGE016) and required liquid–liquid extraction (LLE) twice using methyl tetra butyl ether. Post extraction samples were dried (SPE Nitrogen dryer) and reconstituted for ELISA analysis. All samples were run in duplicates.

rat RXFP1 = molecular target: T2, rat RXFP1 (Rattus norvegicus, UniProt Q6R6I6); assay: Relaxin-stimulated cAMP assay in HEK293 stably expressing rat RXFP1; conditions: three-point selectivity screen, n = 2
T2 sequence (Q6R6I6 1-758): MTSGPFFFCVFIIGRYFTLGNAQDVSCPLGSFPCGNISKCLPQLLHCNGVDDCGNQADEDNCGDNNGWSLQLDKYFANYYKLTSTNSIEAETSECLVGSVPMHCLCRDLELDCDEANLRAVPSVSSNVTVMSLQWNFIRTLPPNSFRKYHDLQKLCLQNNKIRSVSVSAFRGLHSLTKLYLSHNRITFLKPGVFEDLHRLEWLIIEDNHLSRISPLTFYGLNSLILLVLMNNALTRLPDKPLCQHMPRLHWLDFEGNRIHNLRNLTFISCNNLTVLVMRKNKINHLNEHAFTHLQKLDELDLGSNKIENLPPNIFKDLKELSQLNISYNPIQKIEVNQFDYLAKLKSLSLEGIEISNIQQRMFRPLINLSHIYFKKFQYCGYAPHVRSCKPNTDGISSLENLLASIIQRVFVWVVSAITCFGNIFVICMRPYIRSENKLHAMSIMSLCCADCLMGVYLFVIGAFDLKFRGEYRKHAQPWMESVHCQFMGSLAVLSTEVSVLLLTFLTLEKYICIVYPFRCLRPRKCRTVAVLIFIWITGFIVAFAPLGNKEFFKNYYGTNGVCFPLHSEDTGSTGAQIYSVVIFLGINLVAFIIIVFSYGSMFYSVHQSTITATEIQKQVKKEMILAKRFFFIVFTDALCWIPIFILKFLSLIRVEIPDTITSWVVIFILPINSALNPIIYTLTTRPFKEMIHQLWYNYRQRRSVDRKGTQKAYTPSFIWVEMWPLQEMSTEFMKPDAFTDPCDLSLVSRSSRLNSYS
Description: as §2, §3

rat RXFP2 [3] = molecular target: T1, rat RXFP2; assay: INSL3-stimulated CYP11B2 mRNA expression in H295R stably expressing rat RXFP2; assay type: cell-based; set-up: expressed in transfected cells; conditions: INSL3 EC80 (3.5 nM), 48 h, qPCR; N = 2
Description: as §1
Data entered as XY table, with x = [Inhibitor] (nM) and y = CYP11B2 or CYP11B1 fold change.

human RXFP2, sequence (Q8WXD0 whole entry): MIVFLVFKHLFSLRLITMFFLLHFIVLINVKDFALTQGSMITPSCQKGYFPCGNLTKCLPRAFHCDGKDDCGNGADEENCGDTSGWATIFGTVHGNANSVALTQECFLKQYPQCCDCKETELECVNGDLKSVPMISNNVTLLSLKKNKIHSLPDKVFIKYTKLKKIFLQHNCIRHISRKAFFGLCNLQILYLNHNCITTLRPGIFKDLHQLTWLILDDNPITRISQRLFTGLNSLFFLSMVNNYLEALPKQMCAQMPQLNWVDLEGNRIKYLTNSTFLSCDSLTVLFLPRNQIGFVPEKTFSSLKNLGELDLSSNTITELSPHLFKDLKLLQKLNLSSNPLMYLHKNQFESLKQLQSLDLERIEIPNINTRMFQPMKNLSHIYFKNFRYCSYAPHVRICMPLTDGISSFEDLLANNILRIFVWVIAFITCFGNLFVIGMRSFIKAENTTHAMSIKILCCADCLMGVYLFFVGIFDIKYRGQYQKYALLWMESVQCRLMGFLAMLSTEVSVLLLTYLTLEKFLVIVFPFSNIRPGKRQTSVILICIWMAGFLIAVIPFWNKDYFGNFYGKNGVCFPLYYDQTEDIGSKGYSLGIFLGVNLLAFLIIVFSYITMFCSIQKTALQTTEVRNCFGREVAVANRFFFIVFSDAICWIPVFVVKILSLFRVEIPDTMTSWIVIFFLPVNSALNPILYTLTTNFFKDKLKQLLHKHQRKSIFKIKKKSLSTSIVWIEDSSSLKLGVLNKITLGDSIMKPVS

blockade of hRXFP2 (human RXFP2; INSL3-stimulated cAMP, HEK293-hRXFP2): strong blockade | HEK293-human RXFP2 cAMP % Max Response (human RXFP2; INSL3 EC80-stimulated cAMP, stable expression, N = 2): 84.5% | IC50 (human RXFP2; read-out: HEK293-human RXFP2 cAMP IC50, INSL3 EC80-stimulated cAMP, stable expression, N = 2): 15.6 nM | HEK293-rat RXFP2 cAMP % Max Response (rat RXFP2 [1]): 82.5% | IC50 (rat RXFP2 [1]; read-out: HEK293-rat RXFP2 cAMP IC50): 14.1 nM | IC50 (rat RXFP2 [2]): 0.26 nM | blockade of rRXFP1 (relaxin-stimulated cAMP) (rat RXFP1): did not block | IC50 (rat RXFP2 [3]): 0.1 nM
B1: 4G6: Human/rat cross-reactive RXFP2 monoclonal antibody, rat IgG2b backbone; binds the LDLa domain (antibody, V domains shown)
VH: EVQLQQSGPELVKPGASVKLSCKASGYTFTSYVMHWVKQKPEQGLEWIGYKNPSNDGIKYNEKFKGKATLTSDKSSNIAYMELFSLTSEDSAVYYCARSDFGSVWAMDYWGQGTSVTVSS
VL: SIVMTQTPKFLLVSAGDRVTITCKASQSVNDDIVWYQQKPGQSPKLLIYYASNRYTGVPDRFTGSGYGTDFTFTISTVQAGDLAVYFCQQDYSSPFTFGSGTKLEIK
